Conditions in all cases: both partners purified
The target in assay [1] is T1, Kap114p (wild type) (S. cerevisiae, UniProt P53067 1-1004).
T1 construct: Kap114p, S. cerevisiae, full length, amplified from total genomic DNA; GST tag removed with PreScission protease; also called karyopherin-β Kap114p; source: E. coli Rosetta, purified (GST resin, MonoQ, Superdex 200); not shown: GST, N-terminal, cleaved
T1 sequence (looked up): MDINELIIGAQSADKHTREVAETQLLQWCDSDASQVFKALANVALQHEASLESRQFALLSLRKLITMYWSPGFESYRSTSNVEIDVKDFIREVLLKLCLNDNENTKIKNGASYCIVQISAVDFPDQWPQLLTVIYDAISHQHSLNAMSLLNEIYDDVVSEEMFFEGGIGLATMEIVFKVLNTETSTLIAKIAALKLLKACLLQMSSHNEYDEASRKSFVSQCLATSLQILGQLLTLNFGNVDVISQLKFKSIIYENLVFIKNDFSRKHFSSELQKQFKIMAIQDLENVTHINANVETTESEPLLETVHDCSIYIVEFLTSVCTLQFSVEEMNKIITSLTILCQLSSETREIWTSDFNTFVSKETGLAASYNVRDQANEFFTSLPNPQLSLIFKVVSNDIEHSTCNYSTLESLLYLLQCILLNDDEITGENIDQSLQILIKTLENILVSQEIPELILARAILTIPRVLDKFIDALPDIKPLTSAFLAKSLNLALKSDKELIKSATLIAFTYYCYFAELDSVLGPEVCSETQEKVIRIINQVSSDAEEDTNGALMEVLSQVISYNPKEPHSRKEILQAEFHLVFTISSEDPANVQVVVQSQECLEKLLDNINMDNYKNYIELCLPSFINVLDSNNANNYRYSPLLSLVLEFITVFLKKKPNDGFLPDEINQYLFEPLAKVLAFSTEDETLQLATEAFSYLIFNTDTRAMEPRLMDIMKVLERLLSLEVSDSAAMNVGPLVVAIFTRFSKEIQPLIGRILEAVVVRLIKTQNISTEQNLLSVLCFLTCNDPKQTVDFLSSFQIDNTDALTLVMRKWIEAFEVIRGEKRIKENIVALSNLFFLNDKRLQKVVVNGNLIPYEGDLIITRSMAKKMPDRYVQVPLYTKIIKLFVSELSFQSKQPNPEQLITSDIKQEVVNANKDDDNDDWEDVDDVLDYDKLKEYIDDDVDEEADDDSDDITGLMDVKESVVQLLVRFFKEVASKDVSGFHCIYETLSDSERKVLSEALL
As to the kind of experiment: ITC; MicroCal iTC200, 25 °C, 20 mM HEPES pH 7.4, 150 mM NaCl; 25 or 50 μM wild type or mutant Kap114p in the cell, 250 or 500 μM wild-type or mutant yTBP^C in the syringe; triplicate.

The next assay deals with T2, Kap114pΔ(932-941) (S. cerevisiae, UniProt P53067 1-1004, Δ(932-941)).
T2 construct: Kap114p, S. cerevisiae, full length with residues 932-941 deleted; also called Kap114p deletion mutant lacking the α-helix of the HEAT19 loop (a.a. 932-941); source: E. coli Rosetta, purified (GST resin, MonoQ, Superdex 200); not shown: GST, N-terminal, cleaved
T2 sequence (looked up): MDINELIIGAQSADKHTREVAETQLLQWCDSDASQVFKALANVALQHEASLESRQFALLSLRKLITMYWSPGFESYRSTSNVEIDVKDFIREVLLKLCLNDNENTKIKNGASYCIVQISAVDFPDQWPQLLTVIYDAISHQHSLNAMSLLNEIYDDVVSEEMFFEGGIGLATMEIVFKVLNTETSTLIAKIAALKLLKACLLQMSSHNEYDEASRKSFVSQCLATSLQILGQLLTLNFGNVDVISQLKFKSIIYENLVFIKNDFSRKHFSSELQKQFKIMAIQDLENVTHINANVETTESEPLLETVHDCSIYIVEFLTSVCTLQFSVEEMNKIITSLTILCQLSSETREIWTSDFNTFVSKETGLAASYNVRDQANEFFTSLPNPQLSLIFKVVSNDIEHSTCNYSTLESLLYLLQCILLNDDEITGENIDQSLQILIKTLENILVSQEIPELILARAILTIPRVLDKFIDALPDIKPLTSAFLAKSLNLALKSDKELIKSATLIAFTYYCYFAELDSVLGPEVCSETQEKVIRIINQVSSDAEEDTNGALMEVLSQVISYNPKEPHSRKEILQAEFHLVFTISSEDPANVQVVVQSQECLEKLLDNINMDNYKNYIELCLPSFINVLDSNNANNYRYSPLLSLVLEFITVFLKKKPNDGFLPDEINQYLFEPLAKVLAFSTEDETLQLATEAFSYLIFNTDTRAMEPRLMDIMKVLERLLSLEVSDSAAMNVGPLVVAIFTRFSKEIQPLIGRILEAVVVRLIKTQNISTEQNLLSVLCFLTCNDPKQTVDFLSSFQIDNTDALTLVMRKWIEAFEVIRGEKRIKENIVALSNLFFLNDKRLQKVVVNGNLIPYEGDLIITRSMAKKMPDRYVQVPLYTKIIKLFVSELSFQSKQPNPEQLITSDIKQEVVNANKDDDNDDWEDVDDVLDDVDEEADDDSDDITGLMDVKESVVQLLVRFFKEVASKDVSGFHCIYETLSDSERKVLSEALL
The description is as above.

For assay [2], the target named is T1, Kap114p (wild type). As to the kind of experiment: cryo-EM structure; components purified from E. coli, mixed at an equal molar ratio, cross-linked with 0.01% glutaraldehyde, purified by SEC; Titan Krios 300 keV.
The next assay addresses T3, Kap95p (S. cerevisiae, UniProt Q06142 1-861).
T3 construct: Kap95p, S. cerevisiae, full length; The purification paragraph is headed for Kap114p proteins; that Kap95p was treated alike is surmised; source: E. coli, GST-tagged construct in modified pGEX6p1; purification told for the GST-tagged proteins; not shown: GST, N-terminal, cleaved
T3 sequence (looked up): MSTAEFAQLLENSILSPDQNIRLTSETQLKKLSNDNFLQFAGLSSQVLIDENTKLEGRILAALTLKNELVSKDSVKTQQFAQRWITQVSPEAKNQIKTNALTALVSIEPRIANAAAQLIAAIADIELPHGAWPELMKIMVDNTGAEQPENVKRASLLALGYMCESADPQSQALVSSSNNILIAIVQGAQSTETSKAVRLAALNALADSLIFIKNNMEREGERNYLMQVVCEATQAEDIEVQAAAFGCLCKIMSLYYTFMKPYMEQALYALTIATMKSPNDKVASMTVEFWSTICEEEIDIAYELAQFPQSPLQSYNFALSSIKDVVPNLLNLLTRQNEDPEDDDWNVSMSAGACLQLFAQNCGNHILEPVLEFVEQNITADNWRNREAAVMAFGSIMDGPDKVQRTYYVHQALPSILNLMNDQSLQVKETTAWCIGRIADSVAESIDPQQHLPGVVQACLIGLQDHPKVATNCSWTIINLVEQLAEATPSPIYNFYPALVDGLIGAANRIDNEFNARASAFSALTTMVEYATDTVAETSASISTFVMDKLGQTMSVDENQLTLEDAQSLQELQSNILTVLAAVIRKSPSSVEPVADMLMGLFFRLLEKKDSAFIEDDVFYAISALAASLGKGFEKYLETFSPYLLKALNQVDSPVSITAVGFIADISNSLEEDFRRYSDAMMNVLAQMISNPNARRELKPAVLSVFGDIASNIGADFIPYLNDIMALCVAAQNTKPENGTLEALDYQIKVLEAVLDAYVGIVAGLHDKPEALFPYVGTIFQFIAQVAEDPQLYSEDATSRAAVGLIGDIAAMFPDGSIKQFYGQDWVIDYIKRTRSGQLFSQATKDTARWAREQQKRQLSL
As to the kind of experiment: ITC; Kap95p with wild type or R141A yTBP^C; which protein was in the cell is not told for Kap95p; n = 3. (In general: In ITC the heat of successive injections is recorded.)

The term Kd denotes the constant that tells how readily two partners part at equilibrium. Read a high Kd as weaker binding. Usually stoichiometry N stands for the number of molecules, sites or subunits per partner or assembly.

B1: core domain of yeast TATA-box binding protein (yTBP^C), wild type (domain or fragment, S. cerevisiae, UniProt P13393 61-240, looked up)
chain: SGIVPTLQNIVATVTLGCRLDLKTVALHARNAEYNPKRFAAVIMRIREPKTTALIFASGKMVVTGAKSEDDSKLASRKYARIIQKIGFAAKFTDFKIQNIVGSCDVKFPIRLEGLAFSHGTFSSYEPELFPGLIYRMVKPKIVLLIFVSGKIVLTGAKQREEIYQAFEAIYPVLSEFRKM
notes: 61-240; His tag removed with PreScission protease; also called yTBP core domain; source: E. coli Rosetta, purified (Ni-NTA, HiTrap SP, Superdex 75); not shown: His6, N-terminal, cleaved
Turning to B1, the Kd with Kap114p (wild type) [1] was approximately 1 nM; with Kap114pΔ(932-941), approximately 158 nM; with Kap95p, approximately 8100 nM. For the same molecule, the “stoichiometry N” value with Kap114p (wild type) [2] stood at 1.

The values above are taken from paper PMC10491584, “Structural convergence endows nuclear transport receptor Kap114p with a transcriptional repressor function toward TATA-binding protein” (Nature Communications, 2023).
